According to article PMC3384689 (Biochemistry, 2012):

Experiments:
[1] = molecular target: synthetic FliF_(512–532) peptide of Thermotoga maritima FliF (Thermotoga maritima); assay: other fluorescence titration
[2] = molecular target: synthetic FliF_(495–532) peptide of Thermotoga maritima FliF (Thermotoga maritima); assay: other fluorescence titration
SEC-MALS = molecular target: the molecule itself; assay: SEC-MALS
full-length FliG = assay: Size-exclusion chromatography / light scattering, full-length FliG; format: physicochemical, T. maritima; settings: SEC / static light scattering / refractive index; ~1 mg/mL, 25 mM Tris, 200 mM NaCl, 0.5 mM EDTA, pH 7.4

B1: Thermotoga maritima FliG N-terminal domain construct, residues 1–102 (FliGN) (domain or fragment, UniProt Q9WY63 1-102, looked up)
chain: MPEKKIDGRRKAAVLLVALGPEKAAQVMKHLDEETVEQLVVEIANIGRVTPEEKKQVLEEFLSLAKAKEMISEGGIEYAKKVLEKAFGPERARKIIERLTSS
modifications: 15N, 2H (and 13C) isotope labelling in the NMR experiments
Kd [1]: 84 nM | stoichiometry N [2]: 1 | stoichiometry N (SEC-MALS): 2

B2: full-length Thermotoga maritima FliG (FliGNMC) (natural protein, UniProt Q9WY63 1-335, looked up)
chain: MPEKKIDGRRKAAVLLVALGPEKAAQVMKHLDEETVEQLVVEIANIGRVTPEEKKQVLEEFLSLAKAKEMISEGGIEYAKKVLEKAFGPERARKIIERLTSSLQVKPFSFVRDTDPVQLVNFLQSEHPQTIAVVLSYLDPPVAAQILGALPEELQTEVLKRIALLERTSPEVVKEIERNLEKKISGFVSRTFSKVGGIDTAAEIMNNLDRTTEKKIMDKLVQENPELADEIRRRMFVFEDILKLDDRSIQLVLREVDTRDLALALKGASDELKEKIFKNMSKRAAALLKDELEYMGPVRLKDVEEAQQKIINIIRRLEEAGEIVIARGGGEELIM
stoichiometry N (SEC-MALS): 2

B3: full-length FliG: full-length T. maritima FliGNMC, including a N-terminal 6X-His tag (protein)
chain: MPEKKIDGRRKAAVLLVALGPEKAAQVMKHLDEETVEQLVVEIANIGRVTPEEKKQVLEEFLSLAKAKEMISEGGIEYAKKVLEKAFGPERARKIIERLTSSLQVKPFSFVRDTDPVQLVNFLQSEHPQTIAVVLSYLDPPVAAQILGALPEELQTEVLKRIALLERTSPEVVKEIERNLEKKISGFVSRTFSKVGGIDTAAEIMNNLDRTTEKKIMDKLVQENPELADEIRRRMFVFEDILKLDDRSIQLVLREVDTRDLALALKGASDELKEKIFKNMSKRAAALLKDELEYMGPVRLKDVEEAQQKIINIIRRLEEAGEIVIARGGGEELIM
modifications: left off: 6X-His, N-terminal, state not stated
Calculated Mw of full-length FliG, absence of peptide (full-length FliG): ≈ 79 kD | Oligomeric state of full-length FliG, absence of peptide (full-length FliG): tight dimer
